Reference: patent US20230338423A1 (published 2023)
One block for each binder: values may come before it.

Legend:
[1] = target: T1, V5-SUSD2 (human SUSD2, V5-tagged) (human, UniProt Q9UGT4 28-822); assay: anti-V5 immunoprecipitation and immunoblot, Jurkat T cells
T1 construct: Overexpressed in 293T cells or Jurkat T cells; also called SUSD2^WT; not shown: V5 and His tag
T1 sequence: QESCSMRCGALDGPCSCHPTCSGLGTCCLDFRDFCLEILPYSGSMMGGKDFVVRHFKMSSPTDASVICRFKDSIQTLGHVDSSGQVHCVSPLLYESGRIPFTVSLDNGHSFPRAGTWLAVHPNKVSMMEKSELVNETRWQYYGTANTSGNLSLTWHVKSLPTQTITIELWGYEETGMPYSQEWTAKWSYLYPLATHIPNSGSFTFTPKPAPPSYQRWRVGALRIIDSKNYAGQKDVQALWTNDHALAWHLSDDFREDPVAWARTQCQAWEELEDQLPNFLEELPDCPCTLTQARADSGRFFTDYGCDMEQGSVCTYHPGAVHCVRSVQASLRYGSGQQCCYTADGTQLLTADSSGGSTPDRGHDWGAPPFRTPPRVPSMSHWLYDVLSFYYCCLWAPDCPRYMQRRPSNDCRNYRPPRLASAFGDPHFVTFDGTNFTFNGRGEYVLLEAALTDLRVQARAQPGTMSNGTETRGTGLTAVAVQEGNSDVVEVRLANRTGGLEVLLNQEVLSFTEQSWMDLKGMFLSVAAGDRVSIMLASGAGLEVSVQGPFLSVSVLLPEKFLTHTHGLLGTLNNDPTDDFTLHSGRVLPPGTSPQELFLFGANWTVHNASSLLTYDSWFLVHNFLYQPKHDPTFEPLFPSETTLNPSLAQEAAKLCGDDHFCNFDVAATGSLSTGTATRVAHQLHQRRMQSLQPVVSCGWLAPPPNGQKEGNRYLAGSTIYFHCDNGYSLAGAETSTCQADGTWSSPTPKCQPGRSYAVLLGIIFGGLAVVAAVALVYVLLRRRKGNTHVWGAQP

[2] = target: T2, V5-tagged mouse Susd2 (mouse, UniProt Q9DBX3 23-820); assay: anti-V5 immunoprecipitation and immunoblot, Susd2-reconstituted Susd2-/- OT-I T cells
T2 construct: Retrovirally expressed in Susd2-/- OT-I T cells and precipitated from RIPA lysates with anti-V5 agarose; also called V5-Susd2; pMIG II-Susd2; not shown: V5 and His tag
T2 sequence: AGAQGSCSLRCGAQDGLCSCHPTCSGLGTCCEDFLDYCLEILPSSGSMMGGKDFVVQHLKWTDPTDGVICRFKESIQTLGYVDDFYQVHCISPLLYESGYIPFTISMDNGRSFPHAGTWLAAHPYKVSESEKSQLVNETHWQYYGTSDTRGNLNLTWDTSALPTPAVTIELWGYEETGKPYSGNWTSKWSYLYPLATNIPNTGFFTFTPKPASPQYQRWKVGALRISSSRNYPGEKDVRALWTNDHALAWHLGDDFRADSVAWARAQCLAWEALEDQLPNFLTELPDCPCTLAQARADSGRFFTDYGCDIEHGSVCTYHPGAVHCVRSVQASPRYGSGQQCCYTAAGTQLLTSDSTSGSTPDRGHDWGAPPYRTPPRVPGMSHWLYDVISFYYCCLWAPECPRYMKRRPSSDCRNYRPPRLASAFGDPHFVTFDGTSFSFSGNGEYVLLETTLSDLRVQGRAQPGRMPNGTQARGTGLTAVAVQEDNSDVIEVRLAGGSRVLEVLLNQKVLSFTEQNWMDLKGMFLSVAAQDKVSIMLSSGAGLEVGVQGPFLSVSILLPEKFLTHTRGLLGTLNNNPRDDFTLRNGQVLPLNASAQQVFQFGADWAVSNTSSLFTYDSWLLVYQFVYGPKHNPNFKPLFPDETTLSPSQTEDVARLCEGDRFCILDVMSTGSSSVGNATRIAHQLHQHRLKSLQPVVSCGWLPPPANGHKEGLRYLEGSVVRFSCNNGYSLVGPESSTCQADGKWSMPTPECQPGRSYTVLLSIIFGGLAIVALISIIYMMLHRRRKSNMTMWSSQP

binding result [1]: binds
B1: endogenous IL-2Rα in human Jurkat T cells (receptor, UniProt P01589 22-272, looked up)
chain: ELCDDDPPEIPHATFKAMAYKEGTMLNCECKRGFRRIKSGSLYMLCTGNSSHSSWDNQCQCTSSATRNTTKQVTPQPEEQKERKTTEMQSPMQPVDQASLPGHCREPPPWENEATERIYHFVVGQMVYYQCVQGYRALHRGPAESVCKMTHGKTRWTQPQLICTGEMETSQFPGEEKPQASPEGRPESETSCLVTTTDFQIQTEMAATMETSIFTTEYQVAVAGCVFLLISVLLLSGLTWQRRQRKSRRTI
notes: whole, on cells; Endogenous protein, pulled down from Jurkat lysate

binding result [2]: no binding
B2: mouse IL-2Rβ (endogenous, OT-I T cells) (receptor, UniProt P16297 27-539, looked up)
chain: AVKNCSHLECFYNSRANVSCMWSHEEALNVTTCHVHAKSNLRHWNKTCELTLVRQASWACNLILGSFPESQSLTSVDLLDINVVCWEEKGWRRVKTCDFHPFDNLRLVAPHSLQVLHIDTQRCNISWKVSQVSHYIEPYLEFEARRRLLGHSWEDASVLSLKQRQQWLFLEMLIPSTSYEVQVRVKAQRNNTGTWSPWSQPLTFRTRPADPMKEILPMSWLRYLLLVLGCFSGFFSCVYILVKCRYLGPWLKTVLKCHIPDPSEFFSQLSSQHGGDLQKWLSSPVPLSFFSPSGPAPEISPLEVLDGDSKAVQLLLLQKDSAPLPSPSGHSQASCFTNQGYFFFHLPNALEIESCQVYFTYDPCVEEEVEEDGSRLPEGSPHPPLLPLAGEQDDYCAFPPRDDLLLFSPSLSTPNTAYGGSRAPEERSPLSLHEGLPSLASRDLMGLQRPLERMPEGDGEGLSANSSGEQASVPEGNLHGQDQDRGQGPILTLNTDAYLSLQELQAQDSVHLI
notes: whole, on cells; Endogenous, probed by immunoblot in Susd2 precipitates; also called CD122

binding result [2]: no binding
B3: mouse common γ chain (endogenous, OT-I T cells) (receptor, UniProt P34902 23-369, looked up)
chain: WSSKVLMSSANEDIKADLILTSTAPEHLSAPTLPLPEVQCFVFNIEYMNCTWNSSSEPQATNLTLHYRYKVSDNNTFQECSHYLFSKEITSGCQIQKEDIQLYQTFVVQLQDPQKPQRRAVQKLNLQNLVIPRAPENLTLSNLSESQLELRWKSRHIKERCLQYLVQYRSNRDRSWTELIVNHEPRFSLPSVDELKRYTFRVRSRYNPICGSSQQWSKWSQPVHWGSHTVEENPSLFALEAVLIPVGTMGLIITLIFVYCWLERMPPIPPIKNLEDLVTEYQGNFSAWSGVSKGLTESLQPDYSERFCHVSEIPPKGGALGEGPGGSPCSLHSPYWPPPCYSLKPEA
notes: whole, on cells; Endogenous, probed by immunoblot in Susd2 precipitates; also called common 7 chain

binding result [2]: no binding
B4: mouse IL-15Rα (endogenous, OT-I T cells) (receptor, UniProt Q60819 33-263, looked up)
chain: GTTCPPPVSIEHADIRVKNYSVNSRERYVCNSGFKRKAGTSTLIECVINKNTNVAHWTTPSLKCIRDPSLAHYSPVPTVVTPKVTSQPESPSPSAKEPEAFSPKSDTAMTTETAIMPGSRLTPSQTTSAGTTGTGSHKSSRAPSLAATMTLEPTASTSLRITEISPHSSKMTKVAISTSVLLVGAGVVMAFLAWYIKSRQPSQPCRVEVETMETVPMTVRASSKEDEDTGA
notes: whole, on cells; Endogenous, probed by immunoblot in Susd2 precipitates
